Experimental findings from article PMC2672303, “Dosage Effects of Cohesin Regulatory Factor PDS5 on Mammalian Development: Implications for Cohesinopathies” are described below.

This data set has as its target T1, C-PDS5B-His wild type (C-terminal PDS5B, two AT-hooks) (Homo sapiens, UniProt Q9NTI5 1134-1446).
T1 sequence: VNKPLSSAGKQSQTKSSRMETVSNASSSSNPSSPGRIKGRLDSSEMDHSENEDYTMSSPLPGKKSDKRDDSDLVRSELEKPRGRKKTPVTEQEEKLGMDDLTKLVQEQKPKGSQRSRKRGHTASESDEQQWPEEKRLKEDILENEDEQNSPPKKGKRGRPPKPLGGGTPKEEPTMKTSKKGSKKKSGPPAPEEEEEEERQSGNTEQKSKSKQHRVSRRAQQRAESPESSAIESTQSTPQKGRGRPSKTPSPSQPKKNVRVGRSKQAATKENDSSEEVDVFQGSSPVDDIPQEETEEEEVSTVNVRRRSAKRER
The data set is described as follows: EMSA; 5-40 ng protein; EMSA: 20 ng protein (5-40 ng in Fig. 7E) with 2.25 pmol 32P probe, 25 C, 5 min, 6% polyacrylamide gel; protein dialyzed in 50 mM Tris pH 7.5, 0.5 mM EDTA, 100 mM NaCl, 10% glycerol, 1 mM DTT; binding buffer as in cited work. Particulars: protein: recombinant; tags: N-terminal HA; C-terminal 6xHis; label: 32P; blunt.

B1: T5-8-T5 probe (dsDNA)
DNA 1: GGACTCCAGGTCCAGGACCGCTTTTTGCGCGCGCTTTTTGCGGGAGGTCCAGCTGTCCACCTCC
DNA 2: GGAGGTGGACAGCTGGACCTCCCGCAAAAAGCGCGCGCAAAAAGCGGTCCTGGACCTGGAGTCC
With B1, the binding result is listed as “binds”.
